From patent publication US20250243262A1

Experiments:
[1] = molecular target: rPcrV protein (recombinant Pseudomonas PcrV) (Pseudomonas aeruginosa); test: SPR (Bio-Rad ProteOn XPR36); antibody captured, rPcrV as analyte; table under the sensorgram
[2] = molecular target: rPcrV protein (recombinant Pseudomonas PcrV) (Pseudomonas aeruginosa); test: SPR (Bio-Rad ProteOn XPR36); antibody captured on GLC sensor chip with anti-human IgG, rPcrV injected at multiple concentrations

B1: V2L2-GL (V2L2-germlined mAb) (antibody, V domains shown)
VH: EVQLLESGGGLVQPGGSLRLSCAASGFTFSSYAMNWVRQAPGKGLEWVSAITISGITAYYTDSVKGRFTISRDNSKNTLYLQMNSLRAEDTAVYYCAKEEFLPGTHYYYGMDVWGQGTTVTVSS
VL: AIQMTQSPSSLSASVGDRVTITCRASQGIRNDLGWYQQKPGKAPKLVIYSASTLQSGVPSRFSGSGSGTDFTLSISSLQPDDFATYYCLQDYNYPWTFGQGTKVEIK
[1]
  Kd: 0.143 nM
  koff: 0.000116 s⁻¹
  kon: 808000 M⁻¹ s⁻¹
[2]
  Kd: 0.143 nM
  koff: 0.000116 s⁻¹
  kon: 808000 M⁻¹ s⁻¹
